In US20190322762A1:

Tests used:
[1] = molecular target: ENO1 mutant 1-297 (human) (UniProt P06733); experiment: ELISA, 400 ng protein coated, 10 microgram of EN10 mAb
[2] = molecular target: ENO1 mutant 1-189 (human) (UniProt P06733); experiment: as above
[3] = molecular target: ENO1 with amino acid residues 297 to 434 deleted (human) (UniProt P06733); experiment: ELISA, ENO1 deletion mutant Δ297-434 coated, 10 microgram of EN10 mAb
Sequence of ENO1 with amino acid residues 297 to 434 deleted (human) (P06733 1-296, stated change not applied): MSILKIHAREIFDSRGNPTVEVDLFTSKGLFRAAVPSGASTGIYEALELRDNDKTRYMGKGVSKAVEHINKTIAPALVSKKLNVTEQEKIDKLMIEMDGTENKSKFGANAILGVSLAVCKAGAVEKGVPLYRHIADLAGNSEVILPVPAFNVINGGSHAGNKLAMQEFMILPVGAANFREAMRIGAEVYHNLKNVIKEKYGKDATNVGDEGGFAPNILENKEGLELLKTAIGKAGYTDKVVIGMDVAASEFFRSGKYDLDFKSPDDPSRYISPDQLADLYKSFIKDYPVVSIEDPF

- OD405 [1]: 1.56 OD405
- OD405 as percent of that of the wild type ENO1 [1]: 39%
- OD405 [2]: 1.43 OD405
- OD405 as percent of that of the wild type ENO1 [2]: 42%
- OD450 [3]: 0.47
B1: EN10 mAb (antibody, V domains shown)
VH: EVQLQQSGPELVKPGASVKMSCKASGYTFTSCVMNWVKQKPGQGLEWIGYINPYNDGTKYNEKFKGKATLTSDKSSSTAYMELSSLTSEDSAVYYCAREGFYYGNFDNWGQGTTLTVSS
VL: DIQMTQSPASLSASVGETVTITCRASENIYSYLTWYQQKQGKSPQLLVYNAKTLPEGVPSRFSGSGSGTQFSLKINSLQPEDFGSYYCQHHYGTPYTFGGGTKLEITR
